Biological target: T1, labeled ACE2 (angiotensin-converting enzyme 2) (human, UniProt Q9BYF1 18-740)
T1 construct: also called ACE2 detection reagent
Assay: labeled ACE2 on immobilized Mixed Panel, ECL

T1 sequence (Q9BYF1 18-740 limits assumed): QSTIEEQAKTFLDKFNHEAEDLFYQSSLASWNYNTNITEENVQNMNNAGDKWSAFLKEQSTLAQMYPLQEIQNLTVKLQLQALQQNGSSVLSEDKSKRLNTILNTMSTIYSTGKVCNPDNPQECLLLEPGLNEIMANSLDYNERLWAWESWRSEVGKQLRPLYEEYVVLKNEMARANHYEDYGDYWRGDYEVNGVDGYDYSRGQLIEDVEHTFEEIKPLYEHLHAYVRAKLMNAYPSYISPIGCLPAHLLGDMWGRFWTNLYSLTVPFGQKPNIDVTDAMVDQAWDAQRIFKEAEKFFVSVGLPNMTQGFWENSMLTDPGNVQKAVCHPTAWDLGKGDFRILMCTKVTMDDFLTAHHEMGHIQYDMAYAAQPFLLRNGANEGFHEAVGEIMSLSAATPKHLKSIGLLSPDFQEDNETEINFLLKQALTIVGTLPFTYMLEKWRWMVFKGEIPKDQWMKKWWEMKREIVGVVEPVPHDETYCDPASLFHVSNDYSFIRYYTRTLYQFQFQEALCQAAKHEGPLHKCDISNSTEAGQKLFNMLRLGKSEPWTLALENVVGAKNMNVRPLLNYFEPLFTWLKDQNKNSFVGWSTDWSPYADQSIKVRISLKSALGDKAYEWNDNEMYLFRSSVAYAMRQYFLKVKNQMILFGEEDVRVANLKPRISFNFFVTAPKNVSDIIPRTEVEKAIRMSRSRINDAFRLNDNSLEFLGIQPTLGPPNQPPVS

B1: HCoV-OC43 S protein (other)
chain: AVIGDLKCTSDNINDKDTGPPPISTDTVDVTNGLGTYYVLDRVYLNTTLFLNGYYPTSGSTYRNMALKGSVLLSRLWFKPPFLSDFINGIFAKVKNTKVIKDRVMYSEFPAITIGSTFVNTSYSVVVQPRTINSTQDGDNKLQGLLEVSVCQYNMCEYPQTICHPNLGNHRKELWHLDTGVVSCLYKRNFTYDVNADYLYFHFYQEGGTFYAYFTDTGVVTKFLFNVYLGMALSHYYVMPLTCNSKLTLEYWVTPLTSRQYLLAFNQDGIIFNAEDCMSDFMSEIKCKTQSIAPPTGVYELNGYTVQPIADVYRRKPNLPNCNIEAWLNDKSVPSPLNWERKTFSNCNFNMSSLMSFIQADSFTCNNIDAAKIYGMCFSSITIDKFAIPNGRKVDLQLGNLGYLQSFNYRIDTTATSCQLYYNLPAANVSVSRFNPSTWNKRFGFIEDSVFKPRPAGVLTNHDVVYAQHCFKAPKNFCPCKLNGSCVGSGPGKNNGIGTCPAGTNYLTCDNLCTPDPITFTGTYKCPQTKSLVGIGEHCSGLAVKSDYCGGNSCTCRPQAFLGWSADSCLQGDKCNIFANFILHDVNSGLTCSTDLQKANTDIILGVCVNYDLYGILGQGIFVEVNATYYNSWQNLLYDSNGNLYGFRDYIINRTFMIRSCYSGRVSAAFHANSSEPALLFRNIKCNYVFNNSLTRQLQPINYFDSYLGCVVNAYNSTAISVQTCDLTVGSGYCVDYSKNRRSRGAITTGYRFTNFEPFTVNSVNDSLEPVGGLYEIQIPSEFTIGNMVEFIQTSSPKVTIDCAAFVCGDYAACKSQLVEYGSFCDNINAILTEVNELLDTTQLQVANSLMNGVTLSTKLKDGVNFNVDDINFSPVLGCLGSECSKASSRSAIEDLLFDKVKLSDVGFVEAYNNCTGGAEIRDLICVQSYKGIKVLPPLLSENQISGYTLAATSASLFPPWTAAAGVPFYLNVQYRINGLGVTMDVLSQNQKLIANAFNNALYAIQEGFDATNSALVKIQAVVNANAEALNNLLQQLSNRFGAISASLQEILSRLDALEAEAQIDRLINGRLTALNAYVSQQLSDSTLVKFSAAQAMEKVNECVKSQSSRINFCGNGNHIISLVQNAPYGLYFIHFSYVPTKYVTARVSPGLCIAGDRGIAPKSGYFVNVNNTWMYTGSGYYYPEPITENNVVVMSTCAVNYTKAPYVMLNTSIPNLPDFKEELDQWFKNQTSVAPDLSLDYINVTFLDLQVEMNRLQEAIKVLNQSYINLKDIGTYE
notes: also called HCoV-OC43 spike protein
  binding result: no binding

From patent publication US20230184768A1 (MESO SCALE TECHNOLOGIES, published 2023)
